Key:
Aβ42 fibrils (human) = Aβ42 fibrils (human) (UniProt P05067); test: SPR; Aβ42 fibrils immobilized; BRICHOS at 0.391-12.5 μM; global heterogeneous ligand model with two binding sites; apparent constants
[1] = molecular target: amyloid-beta fibrils (Homo sapiens) (UniProt P05067); test: SPR; settings: cited from earlier work
[2] = molecular target: soluble Aβ42 aggregates of different sizes (human) (UniProt P05067); test: FCCS; time course of aggregation of 5, 10 or 20 μM unlabeled Aβ42 with 100 nM HiLyteFluor488-Aβ42 and 483 nM proSP-C BRICHOS T187R (100 nM labeled with Atto655); auto- and cross-correlation curves analysed by MEMFCS and a two-component 3D diffusion model
Chain of soluble Aβ42 aggregates of different sizes (human) (P05067 671-713): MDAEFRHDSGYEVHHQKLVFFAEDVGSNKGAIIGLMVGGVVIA

Chain of proSP-C BRICHOS WT (P11686 59-197): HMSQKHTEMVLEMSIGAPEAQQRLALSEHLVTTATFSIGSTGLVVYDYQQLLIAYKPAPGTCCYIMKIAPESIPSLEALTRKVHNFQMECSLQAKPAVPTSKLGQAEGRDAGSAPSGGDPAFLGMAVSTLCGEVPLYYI
Chain of Aβ42 fibrils (human) (P05067 671-713): as the sequence (P05067 671-713) above
Chain of amyloid-beta fibrils (Homo sapiens) (P05067 672-713): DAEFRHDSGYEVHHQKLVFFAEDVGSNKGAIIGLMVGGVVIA
Chain of proSP-C BRICHOS BRICHOS (P11686 91-197): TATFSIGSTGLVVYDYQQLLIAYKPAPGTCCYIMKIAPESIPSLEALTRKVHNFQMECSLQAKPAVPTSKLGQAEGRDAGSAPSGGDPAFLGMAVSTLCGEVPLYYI

KD2 (binding site 2, apparent) (Aβ42 fibrils (human)) [nM] | ka2 (binding site 2) (Aβ42 fibrils (human)) [M^–1 s^–1] | kd2 (binding site 2) (Aβ42 fibrils (human)) [s^–1] | stoichiometry N [2] | Substance | Kd [1] [nM]
25 | 6800 | 0.00017 | – | proSP-C BRICHOS T187R (from UniProt P11686 59-197) (domain or fragment) | –
130 | 1770 | 0.00023 | – | proSP-C BRICHOS WT (from UniProt P11686 59-197) (domain or fragment) | –
– | – | – | – | proSP-C BRICHOS BRICHOS (from UniProt P11686) | 40
– | – | – | < 10 | proSP-C BRICHOS T187R-Atto655 (from UniProt P11686 59-197) (domain or fragment) | –

— PMC8028046
